The assay addresses GAL4/CfEcR-DEF (Choristoneura fumiferana). In words: cell-based or functional assay.

Fold induction (maximum, reporter gene transactivation, NIH3T3 cells, GS-E) data for two substances are collected here from US20110212528A1.

The substance “VP16/HsRXRβ-EF substitution mutant A495S (receptor)” came in with a fold induction (maximum, reporter gene transactivation, NIH3T3 cells, GS-E) of 30 fold. The same measure for “VP16/HsRXRβ-EF substitution mutant A528S (receptor)”: 21 fold.
